# Results as given in US9969998B2, “Compositions of adenosine deaminase-2 (ADA2), variants thereof and methods of using same” (Halozyme, Inc., priority 2014, dated 2018).
# “And” between values parts separate entries of the source, which are not always exact repeats. Identical values can stand only once.
# B1: R222Q/S265N: ADA2 combination variant SEQ ID NO:273 (protein)
# chain: IDETRAHLLLKEKMMRLGGRLVLNTKEELANERLMTLKIAEMKEAMRTLIFPPSMHFFQAKHLIERSQVFNILRMMPKGAALHLHDIGIVTMDWLVRNVTYRPHCHICFTPRGIMQFRFAHPTPRPSEKCSKWILLEDYRKRVQNVTEFDDSLLRNFTLVTQHPEVIYTNQNVVWSKFETIFFTISGLIHYAPVFRDYVFRSMQEFYEDNVLYMEIRAQLLPVYELSGEHHDEEWSVKTYQEVAQKFVETHPEFIGIKIIYNDHRSKDVAVIAESIRMAMGLRIKFPTVVAGFDLVGHEDTGHSLHDYKEALMIPAKDGVKLPYFFHAGETDWQGTSIDRNILDALMLNTTRIGHGFALSKHPAVRTYSWKKDIPIEVCPISNQVLKLVSDLRNHPVATLMATGHPMVISSDDPAMFGAKGLSYDFYEVFMGIGGMKADLRTLKQLAMNSIKYSTLLESEKNTFMEIWKKRWDKFIADVATK
# modifications: human ADA2 R219Q/S262N, mature numbering
# Key:
# NK/T cells = experiment: Adenosine-mediated inhibition of NK/T cell proliferation (Cell Titer Glow); type: cell-based, human; conditions: 5 days
# Experimental: A mixture of NK and T cells (NK/T) were prepared from healthy donor's peripheral blood mononuclear cells (PBMC). Briefly, 10×10^7 HumanPBMCs were cultured for 6-7 days in Stem cell growth medium (SCGM; Order No. 20802-0500, CellGenix, Freiburg, Germany) with 5% human serum from donors with blood type AB (human AB serum; Cat. No. 35-060-C1, Mediatech, Mannassas, Va.) in the presence of 20 ng/mL anti-CD3 eBioscience, San Diego, Calif.; Cat. No. 16-0039) and 500 IU/mL recombinant human interleukin 2 (rhIL-2; Cat. No. 200-02, PeproTech, Rocky Hill, N.J.). The cells were then cultured for an additional 2-3 weeks in SCGM in the presence of 500 IU/mL rhIL-2. NK/T cells cultured for 2-4 weeks were used in experiments.
# To test the adenosine-mediated inhibition of NK/T cells proliferation, NK/T cells (10,000 cells/well) were plated in a 96 well white plate with clear bottoms in 200 μL volume. The cells were treated with 20 μL adenosine (SKU No. A925, Sigma Aldrich) at concentrations resulting from a 3-fold dilution series starting at 1 mM, i.e. 1 mM, 300 μM, 100 μM, 30 μM, 10 μM, 3 μM, 1 μM, 0.3 μM and 0.1 μM. The NK/T cells were allowed to grow for 5 days in a humidified tissue culture incubator at 37° C. with 5% CO2. After 5 days of treatment, the cells were centrifuged in a 96 well plate at […] for 5 min. 100 μL of medium was removed from each well of cells, followed by addition of 100 μL of Cell Titer Glow (CTG) reagent (Cat. No. G7570, Promega, Madison, Wis.) and incubated at room temperature for 15 min before measuring luminescence on the SpectraMax M3 plate reader according to the manufacturer's instructions. The mean cell survival (%) was determined by comparison of the measured luminescence to control cells not treated with adenosine
# [1] = Distribution of labeled PEG-ADA2-K374D in CT26 peritibial tumors (IVIS fluorescent imaging); type: in vivo, Balb/C mice; conditions: for Fluorescent intensity at tumor: 0.5 mg/kg IV
# Experimental: To assess the distribution and elimination of administered PEG-ADA2-K374D in the tumor microenvironment or in normal organs, immunofluorescence was used to assess the presence of PEG-ADA2-K374D administered to mice. PEG-ADA2-K374D was labeled at room temperature for 60 minutes with DyLight755 Sulfydryl-Reactive Dye (DL755), a near-IR fluor, using the DyLight 755 Antibody Labeling Kit (Thermo Scientific, Rockford, Ill.). Alexa Fluor 750 (AF 750) labeled bovine serum albumin (BSA, 1 mg/mL) was purchased from (Life Technology, Carlsbad, Calif.).
# CT26 syngeneic tumors were produced by injecting 2×10^5 cells in 0.05 mL injection volume per animal into the right peritibial muscle of male Balb/C mice. When average tumor size reached 600 mm^3, tumor-bearing mice were staged into 2 groups (n=4/group) to receive either PEG-ADA2-K374D^DL755 at 0.5 mg/kg or BSA^AF750 at 0.5 mg/kg intravenously. The distribution of DL755 labeled PEG-ADA2-K374D (PEG-ADA2-K374D^DL755) and AF 750 labeled BSA (BSA^AF750) in mouse tumors was assessed using the IVIS Caliper fluorescent imaging system with an excitation wavelength of 745 nm and an emission wavelength of 800 nm (Caliper Life Sciences, Alameda, Calif.) and signal intensity was measured with LivingImage software. Images were captured before administration of labeled proteins and at 10 minute, 2, 6 hours and daily after administration of labeled proteins.
# [2] = system: adenosine in tumor extracellular matrix; experiment: Adenosine in MH194+PSC4 tumor extracellular matrix (microdialysis, LC/MS); type: in vivo, mice; conditions: for Adenosine concentration in ECM, Mean: n = 8; for Adenosine concentration in ECM, individual tumors: single animal values; for adenosine concentration in tumor ECM: 0.03 mg/kg
# Experimental: To assess the effects of PEGADA2 on adenosine in tumor extracellular matrix, mice bearing peritibial MH194+PSC4 tumors received vehicle, the polypeptide whose sequence is set forth in SEQ ID NO:20, which contains the amino acid replacement K374D (Zavialov numbering; K371D mature numbering), at 0.03 mg/kg, or the polypeptide whose sequence is set forth in SEQ ID NO: 273, which contains the amino acid replacements R222Q/S265N (Zavialov numbering; R219Q/S262 mature numbering), at 0.03 mg/kg, 24 or 48 hours prior to microdialysis. Each of the polypeptides were PEGylated as described above in Examples 8 and 22). The mice were anesthetized using isofluorane, and a heating pad was used to maintain body temperature. A small incision was made on the tumor. A microdialysis probe with 55,000 Da molecular weight cut-off (CMA, Stockholm, Sweden) was inserted into the tumor, via a guided cannula. The length of the microdialysis probe used in this study was 10 mm. Once the probe was in position, the cannula was withdrawn leaving the probe completely embedded in the tumor tissue. Dulbecco's phosphate buffered saline (DPBS; Thermo Fisher Scientific) with ADA inhibitors (Pentostatin and 5-iodotubercindin) was perfused through the probe at a flow rate of 1 μl/min for 30 minutes. Then the samples were collected at a flow rate of 0.5 μl/min for 60 minutes. Microdialysis perfusates were analyzed by Liquid chromatography-mass spectrometry (LC/MS) at MicroConstants (9050 Camino Santa Fe, San Diego, Calif. 92121).
# [3] = Kinetic assessment of adenosine deaminase activity (ammonia assay, Michaelis-Menten); type: biochemical; conditions: for Km / Vmax / kcat: [E] = 8.5 nM; for kcat: kcat=Vmax/0.0085/60
# How it was run: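 Coupled ammonia assay: rHuADA2 WT or variants (1 μg/mL, 17 nM in 2× mix) with adenosine 20 μM–20 mM, α-ketoglutarate, NADPH and GDH, at pH 7.6 or pH 6.5 (PIPES), room temperature. Michaelis-Menten fit gave Km, Vmax, kcat, kcat/Km.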
molecule,measurement,setting,value
"Nc1ncnc2c1ncn2[C@@H]1O[C@H](CO)[C@@H](O)[C@H]1O [Adenosine, adenosine]",IC50,"NK/T cells; Homo sapiens, NKT, 120 h",16.2 µM
same,Mean Cell survival (%),NK/T cells; adenosine 0.1 μM,106.67%
same,Mean Cell survival (%),NK/T cells; adenosine 0.3 μM,101.19%
same,Mean Cell survival (%),NK/T cells; adenosine 1 μM,121.11%
same,Mean Cell survival (%),NK/T cells; adenosine 3 μM,110.07%
same,Mean Cell survival (%),NK/T cells; adenosine 10 μM,70.33%
same,Mean Cell survival (%),NK/T cells; adenosine 30 μM,36.84%
same,Mean Cell survival (%),NK/T cells; adenosine 100 μM,26.01%
same,Mean Cell survival (%),NK/T cells; adenosine 300 μM,13.65%
same,Mean Cell survival (%),NK/T cells; adenosine 1000 μM,15.82%
"BSA^AF750: Alexa Fluor 750 (AF 750) labeled bovine serum albumin, control agent",Fluorescent intensity at tumor,[1]; Hour 0.2,2.95E+09
same,Fluorescent intensity at tumor,[1]; Hour 2,3.92E+09
same,Fluorescent intensity at tumor,[1]; Hour 6,4.64E+09
same,Fluorescent intensity at tumor,[1]; Hour 24,3.18E+09
same,Fluorescent intensity at tumor,[1]; Hour 48,1.94E+09
same,Fluorescent intensity at tumor,[1]; Hour 72,1.30E+09
same,Fluorescent intensity at tumor,[1]; Hour 96,9.86E+08
same,Fluorescent intensity at tumor,[1]; Hour 144,7.78E+08
same,Fluorescent intensity at tumor,[1]; Hour 168,6.39E+08
same,Fluorescent intensity at tumor,[1]; Hour 196,6.59E+08
same,Fluorescent intensity at tumor,[1]; Hour −1 (before administration),7.86E+08
same,eliminated from tumors,"[1]; day 6 post injection, 0.5 mg/kg intravenously",~100%
B1,"Adenosine concentration in ECM, Mean",[2]; 24 hours after 0.03 mg/kg,6.88 µM
same,"Adenosine concentration in ECM, individual tumors",[2]; 24 hours after 0.03 mg/kg,0.08 µM and 20.54 µM and 1.08 µM and 0.62 µM and 4.94 µM and 21.48 µM and 0.48 µM and 5.80 µM
same,adenosine concentration in tumor ECM,[2]; 24 hours post treatment,6.9 µM
same,"Adenosine concentration in ECM, Mean",[2]; 48 hours after 0.03 mg/kg,9.77 µM
same,"Adenosine concentration in ECM, individual tumors",[2]; 48 hours after 0.03 mg/kg,13.06 µM and 1.96 µM and 20.36 µM and 20.62 µM and 0.35 µM and 4.15 µM and 14.26 µM and 3.43 µM
same,adenosine concentration in tumor ECM,[2]; 48 hours post treatment,9.8 µM
same,fold higher catalytic efficiency (kcat/Km) compared to the WT ADA2,[3]; pH 6.5,8.2 fold
same,fold lower Km compared to the WT ADA2,[3]; pH 6.5,5.0 fold
same,Km,[3]; pH 6.5,800 µM
same,Vmax,[3]; pH 6.5,56.75 µM/min
same,kcat,[3]; pH 6.5,111.27 s⁻¹
same,fold higher catalytic efficiency (kcat/Km) compared to the WT ADA2,[3]; pH 7.6,15 fold
same,fold lower Km compared to the WT ADA2,[3]; pH 7.6,4.7 fold
same,Km,[3]; pH 7.6,1100 µM
same,Vmax,[3]; pH 7.6,87.79 µM/min
same,kcat,[3]; pH 7.6,172.14 s⁻¹
